Source: PMC11246235

Molecular target: T1, CST (Ctc1/Stn1/Ten1), His6-MBP tag of Ctc1 cleaved off (human), Q2NKJ3
T1 chain 1: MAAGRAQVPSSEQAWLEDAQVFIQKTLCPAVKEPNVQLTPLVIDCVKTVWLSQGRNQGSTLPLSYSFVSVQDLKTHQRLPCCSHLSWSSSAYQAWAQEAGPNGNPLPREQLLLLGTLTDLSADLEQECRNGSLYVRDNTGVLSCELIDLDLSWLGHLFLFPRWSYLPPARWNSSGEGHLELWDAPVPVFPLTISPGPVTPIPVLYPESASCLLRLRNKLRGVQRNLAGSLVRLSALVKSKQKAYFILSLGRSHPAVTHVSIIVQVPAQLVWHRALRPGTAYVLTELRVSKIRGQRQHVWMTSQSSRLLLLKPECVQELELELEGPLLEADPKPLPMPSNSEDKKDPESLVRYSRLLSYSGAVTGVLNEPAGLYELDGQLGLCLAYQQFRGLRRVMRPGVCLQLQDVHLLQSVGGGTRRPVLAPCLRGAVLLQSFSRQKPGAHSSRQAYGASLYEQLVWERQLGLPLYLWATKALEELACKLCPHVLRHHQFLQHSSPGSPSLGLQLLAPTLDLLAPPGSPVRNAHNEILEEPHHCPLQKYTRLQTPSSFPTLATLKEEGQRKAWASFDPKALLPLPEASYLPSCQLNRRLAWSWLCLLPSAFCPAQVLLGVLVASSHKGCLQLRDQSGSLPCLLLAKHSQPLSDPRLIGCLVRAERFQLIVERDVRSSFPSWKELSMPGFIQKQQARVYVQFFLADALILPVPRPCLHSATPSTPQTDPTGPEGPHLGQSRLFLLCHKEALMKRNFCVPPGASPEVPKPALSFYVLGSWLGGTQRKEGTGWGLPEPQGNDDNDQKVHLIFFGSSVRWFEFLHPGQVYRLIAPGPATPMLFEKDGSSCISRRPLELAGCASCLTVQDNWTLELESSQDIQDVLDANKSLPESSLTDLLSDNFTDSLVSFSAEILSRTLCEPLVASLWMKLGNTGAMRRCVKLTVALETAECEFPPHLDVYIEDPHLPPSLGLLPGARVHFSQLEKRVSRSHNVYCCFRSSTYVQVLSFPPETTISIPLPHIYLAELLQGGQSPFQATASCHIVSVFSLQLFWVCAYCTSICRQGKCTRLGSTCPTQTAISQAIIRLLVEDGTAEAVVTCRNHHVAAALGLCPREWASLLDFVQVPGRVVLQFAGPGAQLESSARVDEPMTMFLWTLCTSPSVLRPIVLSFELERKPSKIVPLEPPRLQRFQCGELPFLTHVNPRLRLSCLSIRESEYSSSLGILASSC
T1 chain 2: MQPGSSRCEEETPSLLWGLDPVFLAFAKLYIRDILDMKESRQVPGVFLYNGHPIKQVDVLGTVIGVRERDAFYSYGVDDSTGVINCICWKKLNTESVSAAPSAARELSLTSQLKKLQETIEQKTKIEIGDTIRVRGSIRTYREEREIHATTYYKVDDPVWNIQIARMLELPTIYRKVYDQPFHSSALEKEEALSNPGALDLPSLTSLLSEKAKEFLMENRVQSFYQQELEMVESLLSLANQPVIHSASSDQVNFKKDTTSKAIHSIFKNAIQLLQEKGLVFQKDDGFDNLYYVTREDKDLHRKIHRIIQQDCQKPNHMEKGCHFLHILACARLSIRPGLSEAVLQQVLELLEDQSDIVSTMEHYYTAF
T1 chain 3: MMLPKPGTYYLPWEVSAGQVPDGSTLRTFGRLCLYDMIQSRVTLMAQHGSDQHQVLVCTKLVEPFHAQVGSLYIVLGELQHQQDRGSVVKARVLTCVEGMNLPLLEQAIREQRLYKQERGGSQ
Test: negative-stain EM
Settings: remark: other sources report otherwise

stoichiometry N: 2
B1: CST (Ctc1/Stn1/Ten1), His6-MBP tag of Ctc1 cleaved off, Q2NKJ3 1-1217; Q9H668 1-368; Q86WV5 1-123 (complex)
chain 1: MAAGRAQVPSSEQAWLEDAQVFIQKTLCPAVKEPNVQLTPLVIDCVKTVWLSQGRNQGSTLPLSYSFVSVQDLKTHQRLPCCSHLSWSSSAYQAWAQEAGPNGNPLPREQLLLLGTLTDLSADLEQECRNGSLYVRDNTGVLSCELIDLDLSWLGHLFLFPRWSYLPPARWNSSGEGHLELWDAPVPVFPLTISPGPVTPIPVLYPESASCLLRLRNKLRGVQRNLAGSLVRLSALVKSKQKAYFILSLGRSHPAVTHVSIIVQVPAQLVWHRALRPGTAYVLTELRVSKIRGQRQHVWMTSQSSRLLLLKPECVQELELELEGPLLEADPKPLPMPSNSEDKKDPESLVRYSRLLSYSGAVTGVLNEPAGLYELDGQLGLCLAYQQFRGLRRVMRPGVCLQLQDVHLLQSVGGGTRRPVLAPCLRGAVLLQSFSRQKPGAHSSRQAYGASLYEQLVWERQLGLPLYLWATKALEELACKLCPHVLRHHQFLQHSSPGSPSLGLQLLAPTLDLLAPPGSPVRNAHNEILEEPHHCPLQKYTRLQTPSSFPTLATLKEEGQRKAWASFDPKALLPLPEASYLPSCQLNRRLAWSWLCLLPSAFCPAQVLLGVLVASSHKGCLQLRDQSGSLPCLLLAKHSQPLSDPRLIGCLVRAERFQLIVERDVRSSFPSWKELSMPGFIQKQQARVYVQFFLADALILPVPRPCLHSATPSTPQTDPTGPEGPHLGQSRLFLLCHKEALMKRNFCVPPGASPEVPKPALSFYVLGSWLGGTQRKEGTGWGLPEPQGNDDNDQKVHLIFFGSSVRWFEFLHPGQVYRLIAPGPATPMLFEKDGSSCISRRPLELAGCASCLTVQDNWTLELESSQDIQDVLDANKSLPESSLTDLLSDNFTDSLVSFSAEILSRTLCEPLVASLWMKLGNTGAMRRCVKLTVALETAECEFPPHLDVYIEDPHLPPSLGLLPGARVHFSQLEKRVSRSHNVYCCFRSSTYVQVLSFPPETTISIPLPHIYLAELLQGGQSPFQATASCHIVSVFSLQLFWVCAYCTSICRQGKCTRLGSTCPTQTAISQAIIRLLVEDGTAEAVVTCRNHHVAAALGLCPREWASLLDFVQVPGRVVLQFAGPGAQLESSARVDEPMTMFLWTLCTSPSVLRPIVLSFELERKPSKIVPLEPPRLQRFQCGELPFLTHVNPRLRLSCLSIRESEYSSSLGILASSC
chain 2: MQPGSSRCEEETPSLLWGLDPVFLAFAKLYIRDILDMKESRQVPGVFLYNGHPIKQVDVLGTVIGVRERDAFYSYGVDDSTGVINCICWKKLNTESVSAAPSAARELSLTSQLKKLQETIEQKTKIEIGDTIRVRGSIRTYREEREIHATTYYKVDDPVWNIQIARMLELPTIYRKVYDQPFHSSALEKEEALSNPGALDLPSLTSLLSEKAKEFLMENRVQSFYQQELEMVESLLSLANQPVIHSASSDQVNFKKDTTSKAIHSIFKNAIQLLQEKGLVFQKDDGFDNLYYVTREDKDLHRKIHRIIQQDCQKPNHMEKGCHFLHILACARLSIRPGLSEAVLQQVLELLEDQSDIVSTMEHYYTAF
chain 3: MMLPKPGTYYLPWEVSAGQVPDGSTLRTFGRLCLYDMIQSRVTLMAQHGSDQHQVLVCTKLVEPFHAQVGSLYIVLGELQHQQDRGSVVKARVLTCVEGMNLPLLEQAIREQRLYKQERGGSQ
